The data set has as its system Escherichia coli TOP10. The experiment in a line: shrunken log2 fold change of peptide-encoding DNA abundance (4.5 h post-induction vs induction); higher = less antimicrobial activity (less host growth inhibition). Conditions: time post-induction: 4.5 h; library: site-saturation at positions 5, 18, 19, 20.
In the case of RRIRWRPPRLPRPRPRPVEPPRP, the “shrunken log2 fold change” value is 0.546.

As to RRIRTRPPRLPRPRPRPNMVPRP, the “shrunken log2 fold change” value is -0.0672.

As for RRIRHRPPRLPRPRPRPWFEPRP, the “shrunken log2 fold change” value was -0.366.

For RRIRRRPPRLPRPRPRPCMIPRP, the “shrunken log2 fold change” value was -0.108.

In the case of RRIRHRPPRLPRPRPRPATAPRP, the “shrunken log2 fold change” value is -0.0944.

Take RRIRTRPPRLPRPRPRPPQGPRP: the “shrunken log2 fold change” value was 0.235.

Regarding RRIRIRPPRLPRPRPRPVHAPRP, the “shrunken log2 fold change” value came out at 0.0769.

For the sequence RRIRGRPPRLPRPRPRPWFAPRP, the “shrunken log2 fold change” value was determined as 0.0421.

Regarding RRIRGRPPRLPRPRPRPGKNPRP, the “shrunken log2 fold change” value stood at 0.0656.

In the case of RRIRMRPPRLPRPRPRPTMIPRP, the “shrunken log2 fold change” value was -0.185.

As for RRIRTRPPRLPRPRPRPKSHPRP, the “shrunken log2 fold change” value was -0.365.

For RRIRTRPPRLPRPRPRPENKPRP, the “shrunken log2 fold change” value is -0.178.

Regarding RRIRGRPPRLPRPRPRPNFAPRP, the “shrunken log2 fold change” value is 0.569.

Regarding RRIRDRPPRLPRPRPRPVIAPRP, the “shrunken log2 fold change” value came to 0.224.

As for RRIRHRPPRLPRPRPRPDKPPRP, the “shrunken log2 fold change” value was -0.0375.

For RRIRVRPPRLPRPRPRPEYVPRP, the “shrunken log2 fold change” value is -0.153.

For RRIRHRPPRLPRPRPRPWYGPRP, the “shrunken log2 fold change” value was -0.779.

In the case of RRIRRRPPRLPRPRPRPQGGPRP, the “shrunken log2 fold change” value was found to be 0.0141.

RRIRERPPRLPRPRPRPSHLPRP: the “shrunken log2 fold change” value was -0.188.

Take RRIRSRPPRLPRPRPRPFYGPRP: the “shrunken log2 fold change” value was -0.507.

In the case of RRIRARPPRLPRPRPRPKYYPRP, the “shrunken log2 fold change” value was -0.179.

RRIRNRPPRLPRPRPRPTCEPRP: the “shrunken log2 fold change” value was -0.0176.

RRIRHRPPRLPRPRPRPLPGPRP: the “shrunken log2 fold change” value came to 0.103.

For the sequence RRIRDRPPRLPRPRPRPNHFPRP, the “shrunken log2 fold change” value was -0.189.

For the sequence RRIRTRPPRLPRPRPRPHTKPRP, the “shrunken log2 fold change” value was -0.0963.

Consider RRIRIRPPRLPRPRPRPVNVPRP, for which the “shrunken log2 fold change” value is -0.404.

As to RRIRERPPRLPRPRPRPLLHPRP, the “shrunken log2 fold change” value is -0.288.

Turning to RRIRRRPPRLPRPRPRPFWYPRP, the “shrunken log2 fold change” value was -0.192.

As to RRIRTRPPRLPRPRPRPMCKPRP, the “shrunken log2 fold change” value was -0.0839.

Turning to RRIRERPPRLPRPRPRPKDWPRP, the “shrunken log2 fold change” value was determined as 0.111.

As to RRIRVRPPRLPRPRPRPQVSPRP, the “shrunken log2 fold change” value came to 0.0417.

Consider RRIRMRPPRLPRPRPRPWMMPRP, for which the “shrunken log2 fold change” value was found to be 0.024.

Turning to RRIRTRPPRLPRPRPRPECWPRP, the “shrunken log2 fold change” value came to 0.53.

With RRIRGRPPRLPRPRPRPPHAPRP, the “shrunken log2 fold change” value came to 1.37.

In the case of RRIRCRPPRLPRPRPRPHSEPRP, the “shrunken log2 fold change” value was -0.319.

For the sequence RRIRTRPPRLPRPRPRPASTPRP, the “shrunken log2 fold change” value is -0.0927.

As for RRIRYRPPRLPRPRPRPVWKPRP, the “shrunken log2 fold change” value worked out at 0.0654.

On to RRIRFRPPRLPRPRPRPVIMPRP, for which the “shrunken log2 fold change” value is -0.297.

Consider RRIRSRPPRLPRPRPRPINKPRP, for which the “shrunken log2 fold change” value is -0.641.

Regarding RRIRHRPPRLPRPRPRPQLTPRP, the “shrunken log2 fold change” value is -0.261.

In the case of RRIRPRPPRLPRPRPRPAWCPRP, the “shrunken log2 fold change” value was found to be 0.252.

RRIRGRPPRLPRPRPRPHDWPRP: the “shrunken log2 fold change” value is 0.46.

Consider RRIRARPPRLPRPRPRPHYGPRP, for which the “shrunken log2 fold change” value was 0.0153.

As for RRIRSRPPRLPRPRPRPEFHPRP, the “shrunken log2 fold change” value was -0.162.

Turning to RRIRYRPPRLPRPRPRPWLHPRP, the “shrunken log2 fold change” value was -0.991.

For the sequence RRIRCRPPRLPRPRPRPAEEPRP, the “shrunken log2 fold change” value was -0.314.

RRIRIRPPRLPRPRPRPFGYPRP: the “shrunken log2 fold change” value is -0.478.

For RRIRERPPRLPRPRPRPCCAPRP, the “shrunken log2 fold change” value was determined as 0.112.

As to RRIRDRPPRLPRPRPRPSEYPRP, the “shrunken log2 fold change” value is -0.0118.

For the sequence RRIRPRPPRLPRPRPRPACSPRP, the “shrunken log2 fold change” value was found to be 0.184.

Regarding RRIRWRPPRLPRPRPRPKIRPRP, the “shrunken log2 fold change” value was 0.00361.

On to RRIRTRPPRLPRPRPRPGYPPRP, for which the “shrunken log2 fold change” value is -0.197.

For RRIRNRPPRLPRPRPRPPMFPRP, the “shrunken log2 fold change” value was -0.0155.

RRIRQRPPRLPRPRPRPCEEPRP: the “shrunken log2 fold change” value is -0.0216.

For the sequence RRIRVRPPRLPRPRPRPCFGPRP, the “shrunken log2 fold change” value was -0.263.

On to RRIRLRPPRLPRPRPRPPAKPRP, for which the “shrunken log2 fold change” value turned out to be 0.529.

On to RRIRVRPPRLPRPRPRPLDSPRP, for which the “shrunken log2 fold change” value is -0.19.

As for RRIRVRPPRLPRPRPRPDIMPRP, the “shrunken log2 fold change” value is -0.18.

Consider RRIRFRPPRLPRPRPRPQWLPRP, for which the “shrunken log2 fold change” value is -0.0613.

With RRIRGRPPRLPRPRPRPMKPPRP, the “shrunken log2 fold change” value was 0.276.

Turning to RRIRYRPPRLPRPRPRPKYNPRP, the “shrunken log2 fold change” value was -1.24.

With RRIRTRPPRLPRPRPRPQEGPRP, the “shrunken log2 fold change” value is -0.0173.

As to RRIRCRPPRLPRPRPRPYIRPRP, the “shrunken log2 fold change” value is -1.22.

Turning to RRIRCRPPRLPRPRPRPPNYPRP, the “shrunken log2 fold change” value was -0.376.

As to RRIRTRPPRLPRPRPRPAVIPRP, the “shrunken log2 fold change” value was 0.0431.

With RRIRVRPPRLPRPRPRPIDDPRP, the “shrunken log2 fold change” value was -0.14.

Turning to RRIRRRPPRLPRPRPRPYACPRP, the “shrunken log2 fold change” value is -0.207.

With RRIRARPPRLPRPRPRPTHSPRP, the “shrunken log2 fold change” value came to 0.459.

As to RRIRSRPPRLPRPRPRPNIEPRP, the “shrunken log2 fold change” value is -0.264.

As to RRIRTRPPRLPRPRPRPKHWPRP, the “shrunken log2 fold change” value is 0.441.

Turning to RRIRFRPPRLPRPRPRPTPYPRP, the “shrunken log2 fold change” value was found to be 0.0647.

As to RRIRARPPRLPRPRPRPECTPRP, the “shrunken log2 fold change” value was 1.05.

Turning to RRIRDRPPRLPRPRPRPMYAPRP, the “shrunken log2 fold change” value was 0.143.

With RRIRARPPRLPRPRPRPVMDPRP, the “shrunken log2 fold change” value is 0.671.

Turning to RRIRFRPPRLPRPRPRPQSPPRP, the “shrunken log2 fold change” value is -0.13.

Turning to RRIRSRPPRLPRPRPRPMYPPRP, the “shrunken log2 fold change” value is -0.124.

Regarding RRIRMRPPRLPRPRPRPCYGPRP, the “shrunken log2 fold change” value is -0.534.

In the case of RRIRNRPPRLPRPRPRPHTHPRP, the “shrunken log2 fold change” value was -0.438.

In the case of RRIRVRPPRLPRPRPRPLTWPRP, the “shrunken log2 fold change” value is -0.195.

In the case of RRIRYRPPRLPRPRPRPKAEPRP, the “shrunken log2 fold change” value stood at 0.0881.

Regarding RRIRARPPRLPRPRPRPHRQPRP, the “shrunken log2 fold change” value was determined as 0.29.

Consider RRIRYRPPRLPRPRPRPWHAPRP, for which the “shrunken log2 fold change” value was -0.25.

Consider RRIRGRPPRLPRPRPRPGLTPRP, for which the “shrunken log2 fold change” value was 1.09.

In the case of RRIRKRPPRLPRPRPRPRSYPRP, the “shrunken log2 fold change” value is -0.134.

As to RRIRPRPPRLPRPRPRPFNCPRP, the “shrunken log2 fold change” value was -0.537.

Consider RRIRRRPPRLPRPRPRPWGLPRP, for which the “shrunken log2 fold change” value was -0.222.

For the sequence RRIRNRPPRLPRPRPRPQAEPRP, the “shrunken log2 fold change” value is -0.155.

As for RRIRWRPPRLPRPRPRPENMPRP, the “shrunken log2 fold change” value was -0.185.

RRIRRRPPRLPRPRPRPHHGPRP: the “shrunken log2 fold change” value was -0.249.

For the sequence RRIRCRPPRLPRPRPRPAGCPRP, the “shrunken log2 fold change” value came to 0.262.

In the case of RRIRARPPRLPRPRPRPELIPRP, the “shrunken log2 fold change” value is 0.606.

Regarding RRIRMRPPRLPRPRPRPTIIPRP, the “shrunken log2 fold change” value was -0.374.

In the case of RRIRQRPPRLPRPRPRPPETPRP, the “shrunken log2 fold change” value was 0.00852.

RRIRYRPPRLPRPRPRPFHCPRP: the “shrunken log2 fold change” value was -0.0983.

Turning to RRIRARPPRLPRPRPRPFPNPRP, the “shrunken log2 fold change” value is -0.221.

Turning to RRIRGRPPRLPRPRPRPIVCPRP, the “shrunken log2 fold change” value amounted to 0.356.

RRIRIRPPRLPRPRPRPVCAPRP: the “shrunken log2 fold change” value is -0.0399.

On to RRIRLRPPRLPRPRPRPANVPRP, for which the “shrunken log2 fold change” value is -0.304.

As to RRIRIRPPRLPRPRPRPPYNPRP, the “shrunken log2 fold change” value is -0.854.

As for RRIRFRPPRLPRPRPRPPSNPRP, the “shrunken log2 fold change” value came to 0.324.

For the sequence RRIRERPPRLPRPRPRPNAMPRP, the “shrunken log2 fold change” value stood at 0.0107.

RRIRGRPPRLPRPRPRPPLKPRP: the “shrunken log2 fold change” value stood at 1.03.

For the sequence RRIRKRPPRLPRPRPRPMIQPRP, the “shrunken log2 fold change” value came out at 0.195.

As to RRIRDRPPRLPRPRPRPECVPRP, the “shrunken log2 fold change” value came to 1.3.

Turning to RRIRYRPPRLPRPRPRPQQGPRP, the “shrunken log2 fold change” value was -0.34.

Take RRIRCRPPRLPRPRPRPSHLPRP: the “shrunken log2 fold change” value was -0.53.

Take RRIRLRPPRLPRPRPRPPRIPRP: the “shrunken log2 fold change” value amounted to 0.0531.

For RRIRDRPPRLPRPRPRPYMLPRP, the “shrunken log2 fold change” value is -0.153.

RRIRHRPPRLPRPRPRPCAYPRP: the “shrunken log2 fold change” value was -0.0102.

Consider RRIRSRPPRLPRPRPRPNLIPRP, for which the “shrunken log2 fold change” value was -0.74.

With RRIRARPPRLPRPRPRPKIVPRP, the “shrunken log2 fold change” value is -0.0715.

As to RRIRTRPPRLPRPRPRPNEMPRP, the “shrunken log2 fold change” value is -0.235.

As to RRIRVRPPRLPRPRPRPLMFPRP, the “shrunken log2 fold change” value is -0.449.

Consider RRIRTRPPRLPRPRPRPPYPPRP, for which the “shrunken log2 fold change” value worked out at 0.0259.

In the case of RRIRKRPPRLPRPRPRPFYVPRP, the “shrunken log2 fold change” value was -0.0997.

In the case of RRIRNRPPRLPRPRPRPFMRPRP, the “shrunken log2 fold change” value amounted to 0.269.

Turning to RRIRVRPPRLPRPRPRPQLDPRP, the “shrunken log2 fold change” value amounted to 0.269.

For the sequence RRIRQRPPRLPRPRPRPLNMPRP, the “shrunken log2 fold change” value is -0.423.

With RRIRVRPPRLPRPRPRPGMEPRP, the “shrunken log2 fold change” value was found to be 0.232.

Consider RRIRNRPPRLPRPRPRPPSLPRP, for which the “shrunken log2 fold change” value is -0.0145.

Consider RRIRQRPPRLPRPRPRPYIWPRP, for which the “shrunken log2 fold change” value was -0.0658.

Take RRIRMRPPRLPRPRPRPWYFPRP: the “shrunken log2 fold change” value was -0.282.

For RRIRKRPPRLPRPRPRPNQEPRP, the “shrunken log2 fold change” value is -0.0316.

In the case of RRIRQRPPRLPRPRPRPNSFPRP, the “shrunken log2 fold change” value was 0.151.

Turning to RRIRSRPPRLPRPRPRPMNMPRP, the “shrunken log2 fold change” value was -0.118.

The record behind these values is the supplement of paper PMC9112550, “Optimization of the antimicrobial peptide Bac7 by deep mutational scanning” (BMC Biology, 2022).
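Further: peptides expressed intracellularly from a pBAD plasmid library in pooled LB shake-flask culture, induced with 0.3% L-arabinose, DNA abundance read by NGS, three biological replicates, DESeq2 with apeglm shrinkage.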
